From patent US20200340991A1

Molecular target: chimeric TSH receptor (chimeric MC4 receptor) expressed on CHO-MC4 cells (human/rat chimera) (UniProt P16473)
Assay: cell-based or functional assay

Sequence of thyroid blocking monoclonal antibody K1-70 (VH): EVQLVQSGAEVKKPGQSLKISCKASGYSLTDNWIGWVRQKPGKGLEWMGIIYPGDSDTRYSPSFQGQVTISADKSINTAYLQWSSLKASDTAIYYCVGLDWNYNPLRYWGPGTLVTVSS
Sequence of thyroid blocking monoclonal antibody K1-70 (VL): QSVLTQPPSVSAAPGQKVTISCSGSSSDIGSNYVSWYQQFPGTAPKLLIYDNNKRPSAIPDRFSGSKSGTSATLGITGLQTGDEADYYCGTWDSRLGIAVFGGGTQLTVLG

With follicle stimulating hormone (ligand) the % inhibition, TBI assay, FSH 116.3 mIU/ml in reaction buffer (no K1-70) was 0%, the % inhibition, TBI assay, FSH 232.6 mIU/ml in reaction buffer (no K1-70) was 1% and the RLU, TBI assay, FSH 116.3 mIU/ml in reaction buffer (no K1-70) was 16500 RLU. The RLU, TBI assay, FSH 232.6 mIU/ml in reaction buffer (no K1-70) was 16300 RLU.

In the case of “human chorionic gonadotropin (from UniProt P01215 25-116; P0DN86 21-165) (ligand)”, the % inhibition, TBI assay, hCG 8000 mIU/ml in reaction buffer (no K1-70) was -7%, the % inhibition, TBI assay, hCG 16000 mIU/ml in reaction buffer (no K1-70) was 0% and the RLU, TBI assay, hCG 8000 mIU/ml in reaction buffer (no K1-70) was 17500 RLU. For the same substance, the RLU, TBI assay, hCG 16000 mIU/ml in reaction buffer (no K1-70) was 16500 RLU.

luteinizing hormone (ligand) gave a % inhibition, TBI assay, LH 20 mIU/ml in reaction buffer (no K1-70) of -5%, a % inhibition, TBI assay, LH 40 mIU/ml in reaction buffer (no K1-70) of -6% and an RLU, TBI assay, LH 20 mIU/ml in reaction buffer (no K1-70) of 17300 RLU. The RLU, TBI assay, LH 40 mIU/ml in reaction buffer (no K1-70) was 17400 RLU.

“thyroid blocking monoclonal antibody K1-70” gave a % inhibition, TBI assay, 2.5 ng K1-70 (TBI positive) of 86%, a % inhibition, TBI assay, K1-70 0.0025 ng/ml of -6% and a % inhibition, TBI assay, K1-70 0.1 ng/ml of 6%. It also gave a % inhibition, TBI assay, K1-70 0.4 ng/ml of 25%, a % inhibition, TBI assay, K1-70 0.6 ng/ml of 27% and a % inhibition, TBI assay, K1-70 1 ng/ml of 38%. It also gave a % inhibition, TBI assay, K1-70 1.5 ng/ml of 55%, a % inhibition, TBI assay, K1-70 1.56 ng/ml of 60% and a % inhibition, TBI assay, K1-70 5 ng/ml of 102%. For the same substance, the % inhibition, TBI assay, K1-70 10 ng/ml was 114%, the % inhibition, TBI assay, K1-70 12.5 ng/ml was 104% and the % inhibition, TBI assay, K1-70 25 ng/ml was 104%. It also gave a % inhibition, TBI assay, K1-70 50 ng/ml of 103%, a % inhibition, TBI assay, K1-70 100 ng/ml of 101% and a % inhibition, TBI assay, K1-70 only 100% (5 ng/ml K1-70) of 94%. The % inhibition, TBI assay, mixture M22:K1-70 10:90 was 77%, the % inhibition, TBI assay, mixture M22:K1-70 20:80 was 51% and the % inhibition, TBI assay, mixture M22:K1-70 30:70 was 27%. The % inhibition, TBI assay, mixture M22:K1-70 50:50 was -37%, the % inhibition, TBI assay, mixture M22:K1-70 60:40 was -59% and the % inhibition, TBI assay, mixture M22:K1-70 90:10 was -98%. For the same substance, the IC50, TBI bioassay was 1.34 ng/mL, the IC50 of TBI assay with CHO-MC4 cells was 1.34 ng/mL and the RLU, TBI assay, 2.5 ng K1-70 (TBI positive) was 5530 RLU. It also gave an RLU, TBI assay, 2.5 ng K1-70 with FSH 116.3 mIU/ml of 6100 RLU, an RLU, TBI assay, 2.5 ng K1-70 with FSH 232.6 mIU/ml of 5810 RLU and an RLU, TBI assay, 2.5 ng K1-70 with LH 20 mIU/ml of 6100 RLU. It also gave an RLU, TBI assay, 2.5 ng K1-70 with LH 40 mIU/ml of 5770 RLU, an RLU, TBI assay, 2.5 ng K1-70 with hCG 8000 mIU/ml of 6000 RLU and an RLU, TBI assay, 2.5 ng K1-70 with hCG 16000 mIU/ml of 5950 RLU. The RLU, TBI assay, K1-70 0.0025 ng/ml was 16400 RLU, the RLU, TBI assay, K1-70 0.05 ng/ml was 15700 RLU and the RLU, TBI assay, K1-70 0.1 ng/ml was 13600 RLU. It also gave an RLU, TBI assay, K1-70 0.2 ng/ml of 14100 RLU, an RLU, TBI assay, K1-70 0.4 ng/ml of 12800 RLU and an RLU, TBI assay, K1-70 0.6 ng/ml of 12600 RLU. It also gave an RLU, TBI assay, K1-70 0.8 ng/ml of 12700 RLU, an RLU, TBI assay, K1-70 1 ng/ml of 11300 RLU and an RLU, TBI assay, K1-70 1.5 ng/ml of 9420 RLU. The RLU, TBI assay, K1-70 2 ng/ml was 7940 RLU, the RLU, TBI assay, K1-70 2.5 ng/ml was 6620 RLU and the RLU, TBI assay, K1-70 5 ng/ml was 4010 RLU. For the same substance, the RLU, TBI assay, K1-70 10 ng/ml was 2700 RLU, the RUT, TBI assay, K1-70 only 100% (5 ng/ml K1-70) was 2420 RUT and the RUT, TBI assay, mixture M22:K1-70 10:90 was 4000 RUT. It also gave an RUT, TBI assay, mixture M22:K1-70 20:80 of 6470 RUT, an RUT, TBI assay, mixture M22:K1-70 30:70 of 8650 RUT and an RUT, TBI assay, mixture M22:K1-70 40:60 of 12300 RUT. The RUT, TBI assay, mixture M22:K1-70 50:50 was 14600 RUT, the RUT, TBI assay, mixture M22:K1-70 60:40 was 16700 RUT and the RUT, TBI assay, mixture M22:K1-70 70:30 was 17600 RUT. For the same substance, the RUT, TBI assay, mixture M22:K1-70 80:20 was 19600 RUT, the RUT, TBI assay, mixture M22:K1-70 90:10 was 20400 RUT and the sensitivity of TBI bioassay against TRAb assay was > 20 fold.

“thyroid stimulating monoclonal antibody M22” showed a % inhibition, TBI assay, M22 0.02 ng/ml of 2%, a % inhibition, TBI assay, M22 0.04 ng/ml of 0% and a % inhibition, TBI assay, M22 0.05 ng/ml of -6%. The % inhibition, TBI assay, M22 0.06 ng/ml was -11%, the % inhibition, TBI assay, M22 0.08 ng/ml was -21% and the % inhibition, TBI assay, M22 0.1 ng/ml was -27%. The % inhibition, TBI assay, M22 0.15 ng/ml was -32%, the % inhibition, TBI assay, M22 0.2 ng/ml was -52% and the % inhibition, TBI assay, M22 0.25 ng/ml was -50%. For the same substance, the % inhibition, TBI assay, M22 0.3 ng/ml was -65%, the % inhibition, TBI assay, M22 0.35 ng/ml was -63% and the % inhibition, TBI assay, M22 0.4 ng/ml was -64%. For the same substance, the % inhibition, TBI assay, M22 0.6 ng/ml was -66%, the % inhibition, TBI assay, M22 0.8 ng/ml was -73% and the % inhibition, TBI assay, M22 1.2 ng/ml was -83%. For the same substance, the % inhibition, TBI assay, M22 only 100% (0.8 ng/ml M22) was -106%, the EC50 of stimulatory activity, TBI assay was 0.16 ng/mL and the EC50 of stimulatory activity, TSI assay was 0.14 ng/mL. For the same substance, the RLU, TBI assay, M22 0.02 ng/ml was 9070 RLU, the RLU, TBI assay, M22 0.04 ng/ml was 9260 RLU and the RLU, TBI assay, M22 0.05 ng/ml was 9690 RLU. The RLU, TBI assay, M22 0.06 ng/ml was 10100 RLU, the RLU, TBI assay, M22 0.08 ng/ml was 10900 RLU and the RLU, TBI assay, M22 0.1 ng/ml was 11300 RLU. It also gave an RLU, TBI assay, M22 0.15 ng/ml of 11700 RLU, an RLU, TBI assay, M22 0.2 ng/ml of 13300 RLU and an RLU, TBI assay, M22 0.25 ng/ml of 13100 RLU. The RLU, TBI assay, M22 0.3 ng/ml was 14300 RLU, the RLU, TBI assay, M22 0.35 ng/ml was 14100 RLU and the RLU, TBI assay, M22 0.4 ng/ml was 14200 RLU. It also gave an RLU, TBI assay, M22 0.6 ng/ml of 14400 RLU, an RLU, TBI assay, M22 0.8 ng/ml of 15000 RLU and an RLU, TBI assay, M22 1.2 ng/ml of 15700 RLU. For the same substance, the RUT, TBI assay, M22 only 100% (0.8 ng/ml M22) was 21200 RUT, the SRR % (TBI), M22 0.02 ng/ml was 61% and the SRR % (TBI), M22 0.04 ng/ml was 95%. The SRR % (TBI), M22 0.05 ng/ml was 111%, the SRR % (TBI), M22 0.06 ng/ml was 122% and the SRR % (TBI), M22 0.08 ng/ml was 146%. It also gave an SRR % (TBI), M22 0.1 ng/ml of 180%, an SRR % (TBI), M22 0.15 ng/ml of 236% and an SRR % (TBI), M22 0.2 ng/ml of 270%. The SRR % (TBI), M22 0.25 ng/ml was 283%, the SRR % (TBI), M22 0.3 ng/ml was 302% and the SRR % (TBI), M22 0.35 ng/ml was 315%. For the same substance, the SRR % (TBI), M22 0.4 ng/ml was 332%, the SRR % (TBI), M22 0.6 ng/ml was 368% and the SRR % (TBI), M22 0.8 ng/ml was 368%. For the same substance, the SRR % (TBI), M22 1.2 ng/ml was 365%.
